Measured values taken from the supplement of paper PMC10065799, “High-throughput profiling of sequence recognition by tyrosine kinases and SH2 domains using bacterial peptide display” (eLife, 2023).

Assays:
Grb2 SH2 = Grb2 SH2 (UniProt P62993); test: SH2 binding enrichment of the phosphorylated peptide, bacterial display (enrichment ratio); higher = better substrate or ligand; peptides without Tyr show the background
c-Src SH2 = test: as above
SHP2-C SH2 = test: as above
c-Src = test: phosphorylation enrichment, bacterial display (enrichment ratio); higher = better substrate or ligand; peptides without Tyr show the background
Hck = Hck (UniProt P08631); test: as above
MERTK = MERTK (UniProt Q12866); test: as above
FGFR3 = FGFR3 (UniProt P22607); test: as above
c-Abl (mouse) = test: as above
Jak2 = Jak2 (UniProt O60674); test: as above
Fyn = Fyn (UniProt P06241); test: as above
EPHB1 = EPHB1 (UniProt P54762); test: as above
AncSZ = test: as above
Fes = Fes (UniProt P07332); test: as above
EPHB2 = EPHB2 (UniProt P29323); test: as above
FGFR1 = FGFR1 (UniProt P11362); test: as above
Fer (mouse) = test: as above
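Wherever SH2 binding enrichment of the phosphorylated peptide, bacterial display is given: peptide library displayed on the E. coli surface as eCPX fusions, selected cells deep-sequenced, score is each peptide's frequency after selection divided by its frequency in the input.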
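Wherever phosphorylation enrichment, bacterial display is given: 11-residue human phosphosite peptides and single-mutation variants displayed on the E. coli surface, counted by deep sequencing, each peptide's frequency after selection divided by its frequency in the unselected input library; frequency after pTyr selection over input frequency; kinase dosed for 20-30% of maximal phosphorylation in three min.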

Sequence of Jak2 (O60674 whole entry, looked up): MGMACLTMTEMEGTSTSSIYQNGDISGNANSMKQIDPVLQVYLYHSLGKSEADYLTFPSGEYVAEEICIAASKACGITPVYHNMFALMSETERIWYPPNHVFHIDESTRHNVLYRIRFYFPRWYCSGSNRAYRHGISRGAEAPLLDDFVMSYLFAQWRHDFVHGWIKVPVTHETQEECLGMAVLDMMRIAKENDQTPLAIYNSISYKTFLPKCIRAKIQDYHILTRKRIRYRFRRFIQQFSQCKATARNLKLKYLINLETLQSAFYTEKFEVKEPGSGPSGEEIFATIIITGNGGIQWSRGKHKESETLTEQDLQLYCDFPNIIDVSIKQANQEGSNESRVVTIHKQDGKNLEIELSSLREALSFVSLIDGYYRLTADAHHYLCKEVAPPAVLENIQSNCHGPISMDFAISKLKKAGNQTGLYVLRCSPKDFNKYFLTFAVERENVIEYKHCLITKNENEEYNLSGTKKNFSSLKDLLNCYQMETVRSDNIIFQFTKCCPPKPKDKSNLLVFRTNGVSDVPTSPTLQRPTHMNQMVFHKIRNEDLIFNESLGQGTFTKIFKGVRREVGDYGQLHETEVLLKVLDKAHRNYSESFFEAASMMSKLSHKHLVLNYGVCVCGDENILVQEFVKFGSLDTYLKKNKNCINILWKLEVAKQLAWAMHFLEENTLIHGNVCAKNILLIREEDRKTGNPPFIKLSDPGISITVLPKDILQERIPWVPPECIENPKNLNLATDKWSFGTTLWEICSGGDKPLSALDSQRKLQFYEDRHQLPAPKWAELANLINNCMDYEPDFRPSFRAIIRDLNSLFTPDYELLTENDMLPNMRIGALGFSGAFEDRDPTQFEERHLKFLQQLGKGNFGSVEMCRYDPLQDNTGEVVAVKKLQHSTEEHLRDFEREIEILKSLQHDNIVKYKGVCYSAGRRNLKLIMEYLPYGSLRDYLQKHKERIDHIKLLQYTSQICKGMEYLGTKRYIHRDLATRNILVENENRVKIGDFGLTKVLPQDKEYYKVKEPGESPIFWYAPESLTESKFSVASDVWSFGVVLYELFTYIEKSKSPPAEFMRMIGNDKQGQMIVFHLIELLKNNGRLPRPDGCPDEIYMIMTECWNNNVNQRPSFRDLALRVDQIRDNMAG
Sequence of Hck (P08631 whole entry, looked up): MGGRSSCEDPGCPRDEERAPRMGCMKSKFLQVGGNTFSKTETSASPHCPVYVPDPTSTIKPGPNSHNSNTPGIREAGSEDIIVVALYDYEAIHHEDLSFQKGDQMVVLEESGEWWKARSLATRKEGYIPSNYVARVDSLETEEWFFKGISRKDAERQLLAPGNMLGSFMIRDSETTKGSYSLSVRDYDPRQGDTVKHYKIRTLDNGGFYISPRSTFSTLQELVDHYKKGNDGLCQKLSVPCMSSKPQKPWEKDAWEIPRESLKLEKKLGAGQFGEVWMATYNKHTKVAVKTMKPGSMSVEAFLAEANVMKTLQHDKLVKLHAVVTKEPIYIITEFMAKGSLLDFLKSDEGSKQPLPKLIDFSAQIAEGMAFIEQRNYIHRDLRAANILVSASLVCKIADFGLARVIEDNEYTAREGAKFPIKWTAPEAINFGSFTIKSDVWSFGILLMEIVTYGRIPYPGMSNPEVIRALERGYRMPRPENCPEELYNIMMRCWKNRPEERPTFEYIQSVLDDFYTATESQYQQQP
Sequence of MERTK (Q12866 whole entry, looked up): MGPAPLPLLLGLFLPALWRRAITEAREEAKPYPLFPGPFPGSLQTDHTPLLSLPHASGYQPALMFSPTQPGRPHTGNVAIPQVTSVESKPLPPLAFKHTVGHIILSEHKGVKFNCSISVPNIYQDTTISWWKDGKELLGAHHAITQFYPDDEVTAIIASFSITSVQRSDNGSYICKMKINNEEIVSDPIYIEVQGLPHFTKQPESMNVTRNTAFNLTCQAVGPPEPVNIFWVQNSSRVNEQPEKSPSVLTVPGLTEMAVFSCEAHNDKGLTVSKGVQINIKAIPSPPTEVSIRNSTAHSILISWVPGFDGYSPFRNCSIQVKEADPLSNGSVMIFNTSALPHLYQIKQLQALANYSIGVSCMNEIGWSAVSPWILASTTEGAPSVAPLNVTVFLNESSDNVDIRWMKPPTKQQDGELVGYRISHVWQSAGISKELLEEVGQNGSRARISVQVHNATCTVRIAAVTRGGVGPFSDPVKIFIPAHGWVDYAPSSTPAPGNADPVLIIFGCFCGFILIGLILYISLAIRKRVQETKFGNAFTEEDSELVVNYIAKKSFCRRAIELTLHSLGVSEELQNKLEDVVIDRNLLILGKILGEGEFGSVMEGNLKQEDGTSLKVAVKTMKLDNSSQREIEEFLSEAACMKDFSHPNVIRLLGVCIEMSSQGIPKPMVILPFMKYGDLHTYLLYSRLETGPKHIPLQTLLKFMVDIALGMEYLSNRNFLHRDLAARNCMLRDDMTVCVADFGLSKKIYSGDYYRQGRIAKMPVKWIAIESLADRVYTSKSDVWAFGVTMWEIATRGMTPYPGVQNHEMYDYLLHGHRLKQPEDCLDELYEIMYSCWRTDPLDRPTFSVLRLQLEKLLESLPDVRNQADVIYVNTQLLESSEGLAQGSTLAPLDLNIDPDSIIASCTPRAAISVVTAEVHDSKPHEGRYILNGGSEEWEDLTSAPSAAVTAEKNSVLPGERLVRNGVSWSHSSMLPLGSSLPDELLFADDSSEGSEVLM
Sequence of Fyn (P06241 whole entry, looked up): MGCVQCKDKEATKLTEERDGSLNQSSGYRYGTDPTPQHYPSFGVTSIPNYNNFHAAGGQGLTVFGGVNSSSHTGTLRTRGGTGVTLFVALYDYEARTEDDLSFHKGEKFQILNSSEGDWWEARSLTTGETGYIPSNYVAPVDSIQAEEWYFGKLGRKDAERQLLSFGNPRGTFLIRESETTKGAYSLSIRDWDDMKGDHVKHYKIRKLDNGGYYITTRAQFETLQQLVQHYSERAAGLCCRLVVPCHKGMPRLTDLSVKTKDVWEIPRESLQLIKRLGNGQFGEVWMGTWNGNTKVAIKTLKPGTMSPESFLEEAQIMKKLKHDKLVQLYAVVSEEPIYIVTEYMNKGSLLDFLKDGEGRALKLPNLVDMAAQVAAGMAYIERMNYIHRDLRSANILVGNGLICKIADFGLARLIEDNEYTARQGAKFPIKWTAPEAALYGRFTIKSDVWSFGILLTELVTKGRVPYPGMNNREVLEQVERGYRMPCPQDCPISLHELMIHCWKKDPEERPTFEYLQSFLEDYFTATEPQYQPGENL
Sequence of EPHB2 (P29323 whole entry, looked up): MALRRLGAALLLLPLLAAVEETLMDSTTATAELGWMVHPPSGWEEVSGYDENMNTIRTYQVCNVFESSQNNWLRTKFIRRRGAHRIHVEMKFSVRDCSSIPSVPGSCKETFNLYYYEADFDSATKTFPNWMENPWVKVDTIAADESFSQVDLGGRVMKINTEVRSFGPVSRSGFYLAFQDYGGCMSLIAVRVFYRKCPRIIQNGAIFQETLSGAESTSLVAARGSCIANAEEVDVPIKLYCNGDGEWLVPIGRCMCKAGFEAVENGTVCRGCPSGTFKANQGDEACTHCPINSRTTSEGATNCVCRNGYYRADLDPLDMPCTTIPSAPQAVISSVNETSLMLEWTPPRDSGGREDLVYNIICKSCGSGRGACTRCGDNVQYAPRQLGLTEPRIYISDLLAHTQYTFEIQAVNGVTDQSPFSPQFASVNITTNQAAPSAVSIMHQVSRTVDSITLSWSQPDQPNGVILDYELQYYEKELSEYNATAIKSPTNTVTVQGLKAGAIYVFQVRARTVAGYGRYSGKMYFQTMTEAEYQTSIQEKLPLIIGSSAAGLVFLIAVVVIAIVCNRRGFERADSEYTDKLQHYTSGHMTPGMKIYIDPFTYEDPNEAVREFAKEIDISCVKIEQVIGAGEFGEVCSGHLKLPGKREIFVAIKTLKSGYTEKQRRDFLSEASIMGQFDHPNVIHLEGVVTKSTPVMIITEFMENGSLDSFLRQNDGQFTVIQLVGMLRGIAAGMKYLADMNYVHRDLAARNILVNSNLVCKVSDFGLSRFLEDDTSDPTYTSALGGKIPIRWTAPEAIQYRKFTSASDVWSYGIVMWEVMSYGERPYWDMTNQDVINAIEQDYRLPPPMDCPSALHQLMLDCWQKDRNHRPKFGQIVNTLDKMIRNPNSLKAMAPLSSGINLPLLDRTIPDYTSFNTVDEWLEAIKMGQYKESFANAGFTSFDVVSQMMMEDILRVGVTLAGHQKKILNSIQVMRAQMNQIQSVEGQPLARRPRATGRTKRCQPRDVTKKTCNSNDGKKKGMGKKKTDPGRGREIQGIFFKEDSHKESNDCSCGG
Sequence of FGFR1 (P11362 whole entry, looked up): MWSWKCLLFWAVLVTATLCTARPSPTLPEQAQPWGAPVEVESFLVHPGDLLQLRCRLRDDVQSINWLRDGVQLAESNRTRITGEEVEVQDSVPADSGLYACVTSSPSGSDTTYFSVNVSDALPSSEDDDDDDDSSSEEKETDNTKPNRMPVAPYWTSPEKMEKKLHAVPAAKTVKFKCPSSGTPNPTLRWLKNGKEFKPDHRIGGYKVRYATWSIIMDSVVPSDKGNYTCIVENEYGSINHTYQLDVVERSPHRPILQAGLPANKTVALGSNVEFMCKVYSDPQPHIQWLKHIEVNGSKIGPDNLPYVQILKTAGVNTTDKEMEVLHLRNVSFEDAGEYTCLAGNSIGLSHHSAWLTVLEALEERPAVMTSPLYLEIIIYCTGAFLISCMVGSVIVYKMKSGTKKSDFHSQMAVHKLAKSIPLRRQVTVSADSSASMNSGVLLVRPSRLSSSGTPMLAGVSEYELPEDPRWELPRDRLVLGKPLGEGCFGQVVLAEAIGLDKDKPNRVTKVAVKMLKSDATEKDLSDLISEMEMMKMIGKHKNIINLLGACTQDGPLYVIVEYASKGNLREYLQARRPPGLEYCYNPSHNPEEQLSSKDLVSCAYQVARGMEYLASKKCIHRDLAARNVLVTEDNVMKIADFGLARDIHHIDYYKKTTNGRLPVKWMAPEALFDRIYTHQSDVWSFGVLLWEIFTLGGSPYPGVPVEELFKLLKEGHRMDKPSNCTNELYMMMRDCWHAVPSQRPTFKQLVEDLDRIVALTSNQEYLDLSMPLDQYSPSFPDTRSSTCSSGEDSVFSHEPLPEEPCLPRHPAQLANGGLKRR

| Sequence | SH2 binding enrichment (Grb2 SH2) | SH2 binding enrichment (c-Src SH2) | SH2 binding enrichment (SHP2-C SH2) | phosphorylation enrichment (c-Src) | phosphorylation enrichment (Hck) | phosphorylation enrichment (MERTK) | phosphorylation enrichment (FGFR3) | phosphorylation enrichment (c-Abl (mouse)) | phosphorylation enrichment (Jak2) | phosphorylation enrichment (Fyn) | phosphorylation enrichment (EPHB1) | phosphorylation enrichment (AncSZ) | phosphorylation enrichment (Fes) | phosphorylation enrichment (EPHB2) | phosphorylation enrichment (FGFR1) | phosphorylation enrichment (Fer (mouse)) |
| --- | --- | --- | --- | --- | --- | --- | --- | --- | --- | --- | --- | --- | --- | --- | --- | --- |
| SLMGCYNLTFM [HS6ST3_Y323_V320M] | 0.823 | 0.459 | 0.542 | 0.955 | 0.724 | 0.56 | 1.02 | 1.14 | 1.61 | 0.592 | 0.65 | 1.46 | 1.63 | 0.655 | 0.546 | 1.35 |
| DEEPPDRGPFC [SASH1_Y551_Y551D] | 1.01 | 0.61 | 0.694 | 0.513 | 0.496 | 0.465 | 0.679 | 0.798 | 0.952 | 0.532 | 0.549 | 1.15 | 1.14 | 0.596 | 0.574 | 0.665 |
| CTTIHYDYMCN [TP53_Y234_N235D] | 0.983 | 8.99 | 1.48 | 0.675 | 0.635 | 0.591 | 0.631 | 0.708 | 1.03 | 0.657 | 0.644 | 1.31 | 0.994 | 0.723 | 0.687 | 1.17 |
| LENSTYQFIRV [CRB1_Y760_YF] | 0.607 | 0.546 | 0.622 | 3.85 | 7.9 | 4.96 | 3.21 | 1.18 | 0.946 | 2.87 | 5.79 | 1.36 | 1.52 | 1.75 | 5.63 | 15.8 |
| CLAKMYFSAVD [CP_Y539_YF] | 0.895 | 0.606 | 0.608 | 0.563 | 0.527 | 0.414 | 0.765 | 1.03 | 1.06 | 0.519 | 0.662 | 1.04 | 1.26 | 0.592 | 0.519 | 0.506 |
| ILGRTHFVNHE [NEDD4_Y627_Y627H_YF] | 0.899 | 0.466 | 0.637 | 0.377 | 0.451 | 0.423 | 0.559 | 0.5 | 0.485 | 0.476 | 0.471 | 0.633 | 0.707 | 0.535 | 0.397 | 0.457 |
| SFLSFYTSHVQ [NEFL_Y443_P440L_YF] | 1.41 | 1.25 | 1.23 | 0.462 | 0.428 | 0.533 | 0.682 | 0.693 | 1.1 | 0.421 | 0.758 | 1.21 | 1.3 | 0.697 | 0.531 | 0.503 |
| YKEQGYHRLPS [RIN1_Y681_P686S] | 0.802 | 0.751 | 0.853 | 0.439 | 0.279 | 0.413 | 0.485 | 0.455 | 0.763 | 0.366 | 0.245 | 0.531 | 0.508 | 0.366 | 0.485 | 0.363 |
| PPKFFYTRKLL [CYBB_Y41] | 1.01 | 0.461 | 0.709 | 0.439 | 0.462 | 0.766 | 0.614 | 0.694 | 0.658 | 0.779 | 0.457 | 1.12 | 0.801 | 0.683 | 1.22 | 0.513 |
| NWGSPYKSDGC [ZNF347_Y261_N264D] | 0.768 | 0.405 | 0.587 | 0.397 | 0.442 | 0.345 | 0.522 | 0.723 | 0.673 | 0.4 | 0.486 | 0.864 | 0.864 | 0.51 | 0.562 | 0.394 |
| NQDRTYFERVR [SPEN_Y632_S635R_YF] | 0.857 | 0.572 | 0.547 | 0.567 | 0.812 | 0.377 | 0.522 | 0.538 | 0.601 | 0.419 | 0.473 | 0.607 | 0.648 | 0.411 | 0.421 | 0.401 |
| LGRGKSSEVFE [CSNK2A1_Y50_Y50S] | 0.65 | 0.337 | 0.547 | 0.653 | 0.517 | 0.639 | 0.661 | 0.835 | 0.996 | 0.646 | 0.341 | 0.923 | 1.01 | 0.605 | 0.438 | 0.593 |
| EYGRRYGFSRQ [CCDC93_Y209] | 0.676 | 0.474 | 0.572 | 0.419 | 0.438 | 0.534 | 0.588 | 0.525 | 0.475 | 0.424 | 0.41 | 0.577 | 0.646 | 0.393 | 0.389 | 0.309 |
| GSSKIYFLHPD [TLR5_Y108] | 1.16 | 0.751 | 1.18 | 1.83 | 1.21 | 2.89 | 1.85 | 0.642 | 0.714 | 1.84 | 0.529 | 0.849 | 0.844 | 0.624 | 2.48 | 0.403 |
| PDGHEYIFVDP [PDGFRA_Y572_YF] | 0.662 | 1.65 | 0.761 | 0.495 | 0.54 | 0.311 | 1.99 | 0.466 | 0.73 | 0.712 | 0.644 | 2.01 | 1.04 | 0.719 | 2.86 | 0.576 |
| LQRVQCDLQKA [DSP_Y1512_Y1512C] | 0.696 | 0.543 | 0.558 | 0.709 | 0.812 | 0.762 | 1.31 | 0.987 | 1.43 | 0.811 | 1.12 | 1.14 | 1.16 | 0.827 | 1.06 | 0.809 |
| STSYDYCRVPM [BST2_Y8] | 0.858 | 1.54 | 0.937 | 1.13 | 2.22 | 3.24 | 5.34 | 1.11 | 2.55 | 0.711 | 11.7 | 3.77 | 0.892 | 10.3 | 7.46 | 4.37 |

| Sequence | SH2 binding enrichment (Grb2 SH2) | SH2 binding enrichment (c-Src SH2) | SH2 binding enrichment (SHP2-C SH2) | phosphorylation enrichment (c-Src) | phosphorylation enrichment (Hck) | phosphorylation enrichment (MERTK) | phosphorylation enrichment (FGFR3) | phosphorylation enrichment (c-Abl (mouse)) | phosphorylation enrichment (Jak2) | phosphorylation enrichment (Fyn) | phosphorylation enrichment (EPHB1) | phosphorylation enrichment (AncSZ) | phosphorylation enrichment (Fes) | phosphorylation enrichment (EPHB2) | phosphorylation enrichment (FGFR1) | phosphorylation enrichment (Fer (mouse)) |
| --- | --- | --- | --- | --- | --- | --- | --- | --- | --- | --- | --- | --- | --- | --- | --- | --- |
| YKWAVYCIIGR [NUP93_Y391_R388W] | 2.41 | 1.36 | 1.42 | 1.18 | 1.29 | 0.953 | 0.751 | 0.981 | 1.08 | 1.04 | 3.37 | 1.23 | 1.48 | 1.83 | 0.527 | 0.646 |
| VTVLDYDKTGK [SYT1_Y365_I368T] | 0.737 | 0.408 | 0.511 | 0.398 | 0.426 | 0.335 | 0.439 | 0.452 | 0.517 | 0.442 | 0.365 | 0.591 | 0.712 | 0.46 | 0.463 | 0.411 |
| RKPDIYGRLAS [MCM4_Y459_E460G] | 1.16 | 1.02 | 0.764 | 2.24 | 5.06 | 0.753 | 1.05 | 0.67 | 0.535 | 4.7 | 0.513 | 0.628 | 0.807 | 0.545 | 0.757 | 0.747 |
| ADRNHYRRYRR [YBX1_Y145_P149R] | 0.513 | 0.538 | 0.467 | 0.608 | 0.522 | 0.532 | 0.572 | 0.661 | 0.549 | 0.525 | 0.522 | 0.619 | 0.861 | 0.499 | 0.532 | 0.488 |
| PLFKIYVAELI [MRPL28_Y230] | 0.82 | 0.574 | 0.634 | 0.791 | 0.738 | 0.707 | 1.54 | 0.947 | 1.71 | 0.658 | 0.919 | 2.14 | 2.35 | 0.772 | 0.806 | 0.978 |
| ALLTKYSHSSM [DSCC1_Y374] | 0.76 | 0.406 | 0.488 | 0.528 | 0.485 | 0.436 | 0.587 | 0.727 | 0.542 | 0.578 | 0.442 | 0.651 | 0.737 | 0.643 | 0.45 | 0.56 |
| PKDSAYVTWEP | 0.938 | 0.487 | 0.675 | 2.02 | 2.38 | 1.39 | 1.45 | 1.16 | 1.36 | 2.17 | 1.03 | 1.66 | 1.4 | 0.798 | 2.14 | 2.5 |
| LNCAGYCDALE [MTUS1_Y151] | 0.754 | 7.11 | 0.58 | 0.683 | 0.511 | 0.617 | 0.906 | 0.917 | 1.32 | 0.514 | 0.621 | 1.19 | 1.3 | 0.578 | 0.55 | 0.599 |
| NTPNAYLRVNV [ADD2_Y440_T439A] | 0.856 | 0.499 | 1.12 | 0.391 | 0.469 | 0.404 | 0.667 | 0.706 | 0.806 | 0.437 | 0.463 | 0.868 | 0.934 | 0.465 | 0.437 | 0.405 |
| RRAKGYPINLF [ITGB2_Y125_D128N_YF] | 0.868 | 0.572 | 0.397 | 0.554 | 0.448 | 0.476 | 0.465 | 0.537 | 0.603 | 0.435 | 0.576 | 0.49 | 0.571 | 0.613 | 0.448 | 0.454 |
| FSKTQYNQVPS [CXADR_Y318_YF] | 0.962 | 0.56 | 1.03 | 0.613 | 0.598 | 0.697 | 0.556 | 0.892 | 1.15 | 0.507 | 0.424 | 0.801 | 0.85 | 0.858 | 0.577 | 0.551 |
| AFLLLYFNDTH [BMP15_Y235] | 1.01 | 0.566 | 0.79 | 0.486 | 0.482 | 0.43 | 0.915 | 1.16 | 1.26 | 0.445 | 0.761 | 1.15 | 1.41 | 0.496 | 0.49 | 0.525 |
| MKSIKYMDKEV [CCDC60_Y41_I46V] | 0.742 | 0.413 | 0.515 | 0.375 | 0.399 | 0.334 | 0.545 | 0.492 | 0.567 | 0.344 | 0.325 | 0.664 | 0.554 | 0.316 | 0.437 | 0.355 |
| HLVLNYGVCVC [JAK2_Y613] | 0.796 | 0.52 | 0.795 | 0.779 | 0.985 | 1.44 | 1.8 | 1.49 | 1.99 | 1.1 | 1.61 | 2.33 | 2.31 | 1.27 | 0.91 | 0.99 |
| IGSQRYQLGVR [RB1_Y446_K447Q] | 1.07 | 0.66 | 0.887 | 0.343 | 0.34 | 0.385 | 0.388 | 0.451 | 0.413 | 0.365 | 0.315 | 0.439 | 0.534 | 0.303 | 0.346 | 0.403 |
| DDPRTYQKYGY [OAS1_Y362_R361T] | 0.866 | 0.598 | 0.833 | 0.549 | 0.492 | 0.421 | 0.555 | 0.572 | 0.635 | 0.43 | 0.458 | 0.74 | 0.76 | 0.611 | 0.446 | 0.41 |
